Experimental findings from US20090098123A1 (ROCKEFELLER UNIVERSITY, published 2009) are described below.

Test [1] has as its target human CD81 (human) (UniProt P60033). Nature of the test: cell-based or functional assay.
For test [2], the target named is CLDN1 F10x3 (GFP-CLDN1 with a triple FLAG epitope inserted in EL1 at position F10) (human) (UniProt O95832). As to the kind of experiment: cell-based or functional assay.
The target of test [3] is GFP-CLDN1 with a single FLAG epitope inserted in EL1 at position F6 (human) (UniProt O95832). As to the kind of experiment: cell-based or functional assay.
In test [4] the target is GFP-CLDN1 with a single FLAG epitope inserted in EL1 at position F8 (human) (UniProt O95832). As to the kind of experiment: cell-based or functional assay.
Test [5] addresses GFP-CLDN1 with a single FLAG epitope inserted in EL1 at position F9 (human) (UniProt O95832). Nature of the test: cell-based or functional assay.
For test [6], the target named is T1, J6/JFH HCVcc (cell culture infectious HCV particles of the chimeric genotype 2a J6/JFH genome) (Hepatitis C virus genotype 2a, isolate …, UniProt P26660 192-383; P26660 384-750).
T1 construct: A whole enveloped virion, not a single protein
Nature of the test: HCVcc bound to transduced CHO cells 2 h at 37 C; cell-associated HCV RNA by real-time RT-PCR. (Real-time PCR tracks product formation cycle by cycle.)

As to JS81 anti-CD81 antibody (BD Pharmingen), in test [1], the time after the temperature shift at which antibody addition still gives half-maximal inhibition of HCVpp infection (synchronized infection) came to 18 min. “anti-FLAG M2 monoclonal antibody (Sigma)”: the time after the temperature shift at which antibody addition still gives half-maximal inhibition of HCVpp infection (synchronized infection) in test [2] came to 73 min. The reduction of HCVpp permissiveness (luciferase) of 293T cells expressing the clone, in the presence of antibody was < 90% in test [3], < 45% in test [4] and < 62% in test [5].

B1: human CD81 (receptor)
chain: MGVEGCTKCIKYLLFVFNFVFWLAGGVILGVALWLRHDPQTTNLLYLELGDKPAPNTFYVGIYILIAVGAVMMFVGFLGCYGAIQESQCLLGTFFTCLVILFACEVAAGIWGFVNKDQIAKDVKQFYDQALQQAVVDDDANNAKAVVKTFHETLDCCGSSTLTALTTSVLKNNLCPSGSNIISNLFKEDCHQKIDDLFSGKLYLIGIAAIVVAVIMIFEMILSMVLCCGIRNSSVY
notes: whole, on cells
As to B1, the binding result in test [6] is given as “no binding (tested: MOI ~0.5)”.

B2: human CLDN1 (Claudin-1), wild type (receptor)
chain: MANAGLQLLGFILAFLGWIGAIVSTALPQWRIYSYAGDNIVTAQAMYEGLWMSCVSQSTGQIQCKVFDSLLNLSSTLQATRALMVVGILLGVIAIFVATVGMKCMKCLEDDEVQKMRMAVIGGAIFLLAGLAILVATAWYGNRIVQEFYDPMTPVNARYEFGQALFTGWAAASLCLLGGALLCCSCPRKTTSYPTPRPYPKPAPSSGKDYV
notes: also called wild-type CLDN1
In the case of B2, the binding result in test [6] is listed as “no binding (tested: MOI ~0.5)”.
